# Test results reported in paper PMC9546771.
# Biological target: His-tagged human FcRn/β2-microglobulin complex (human) (UniProt P55899)
# Test: SPR; Biacore 8K, CM5 chip; His-tagged human FcRn/β2-microglobulin captured (45-60 RU) on covalently linked anti-His antibody; IgG1 injected as two-fold, eight-step series 75 nM to 0.29 nM; 25 °C; 20 mM phosphate pH 6.0, 137 mM NaCl, 2.7 mM KCl, 0.05% Tween-20; 1:1 binding model, apparent constants, KD = kd/ka; n=3 …
# Sequence of UniProt P55899 (P55899 24-297, chain 1 of 2): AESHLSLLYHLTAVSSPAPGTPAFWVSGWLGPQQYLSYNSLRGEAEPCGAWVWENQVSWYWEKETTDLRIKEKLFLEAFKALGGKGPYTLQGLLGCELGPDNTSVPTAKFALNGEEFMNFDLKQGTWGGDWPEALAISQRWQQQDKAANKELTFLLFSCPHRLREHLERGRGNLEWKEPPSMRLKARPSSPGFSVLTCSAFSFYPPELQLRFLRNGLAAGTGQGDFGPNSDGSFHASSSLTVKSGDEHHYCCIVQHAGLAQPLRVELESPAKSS
# Sequence of UniProt P55899 (P61769 21-119, chain 2 of 2, further chain): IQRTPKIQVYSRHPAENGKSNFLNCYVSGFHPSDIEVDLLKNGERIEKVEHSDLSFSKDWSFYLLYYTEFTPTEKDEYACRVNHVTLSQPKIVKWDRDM
substance,measurement,value
IgG1-Campath (antibody),Kd,67.6 nM
same,koff,0.0439 s⁻¹
same,kon,649000 M⁻¹ s⁻¹
